Measurements reported in article PMC3808375, “Reduction of Decoy Receptor 3 Enhances TRAIL-Mediated Apoptosis in Pancreatic Cancer” (PLoS ONE, 2013).
pKd: −log10 of the molar value. Where two headings read alike, the source gives them in different places.

Experiments:
[1] = biological target: recombinant human DcR3 (decoy receptor 3) (human) (UniProt O95407); test: SPR; Biacore 3000; DcR3 amine-coupled to a CM5 chip; TRAIL 1-2048 nM or LIGHT 1-512 nM flowed at 20 µl/minute; HBS-EP buffer (10 mM HEPES pH 7.4, 150 mM NaCl, 3.4 mM EDTA, 0.005% Surfactant P20); 1:1 binding model, global analysis
Sequence of recombinant human DcR3 (decoy receptor 3) (human) (O95407 30-300): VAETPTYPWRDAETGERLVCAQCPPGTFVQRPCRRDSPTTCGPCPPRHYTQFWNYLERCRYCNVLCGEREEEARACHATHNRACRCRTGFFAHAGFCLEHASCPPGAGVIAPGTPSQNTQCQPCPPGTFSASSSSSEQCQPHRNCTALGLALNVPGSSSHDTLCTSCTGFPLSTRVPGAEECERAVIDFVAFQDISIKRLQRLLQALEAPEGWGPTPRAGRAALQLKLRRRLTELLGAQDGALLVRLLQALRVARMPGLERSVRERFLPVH

[2] = biological target: recombinant human DcR3 (decoy receptor 3) (human) (UniProt O95407); test: as above; remark: listed apart in the source

kon [1]: 19700 M⁻¹ s⁻¹
pKd [2]: 7.28
koff [2]: 0.00104 s⁻¹
kon [2]: 19400 M⁻¹ s⁻¹
Substance: recombinant human TRAIL (TNF-related apoptosis-inducing ligand) (from UniProt P50591 1-281)
